Measured values reported in publication PMC4745738.

Target: TRAIL-R

inhibition of specific lysis of Nalm6 cells by pDC-activated NK cells (5:1 E:T ratio) with a blocking anti-TRAIL antibody: 50%
inhibition of specific lysis of REH cells by pDC-activated NK cells (5:1 E:T ratio) with a blocking anti-TRAIL antibody: 66%
Substance: TNF-related apoptosis-inducing ligand (TRAIL) (from UniProt P50591 1-281)
